Laboratory results taken from patent publication US12698494.
Positions count from the first letter of the chain named. In names and notes the source's numbering stands.

Columns and labels:
[1] = molecular target: T1, FRETS-VWF73 fluorogenic substrate, P04275
T1 chain: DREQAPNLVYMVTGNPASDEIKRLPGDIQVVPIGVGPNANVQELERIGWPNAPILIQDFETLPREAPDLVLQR

[2] = molecular target: Von Willebrand Factor (VWF) multimers, P04275

B1: ADAMTS13 variant NGLY3 + R568A/Y665A + L591A/R636A/L637A/L668A (protein)
chain: AAGGILHLELLVAVGPDVFQAHQEDTERYVLTNLNIGAELLRDPSLGAQFRVHLVKMVILTEPEGAPNITANLTSSLLSVCGWSQTINPEDDTDPGHADLVLYITRFDLELPDGNRQVRGVTQLGGACSPTWSCLITEDTGFDLGVTIAHEIGHSFGLEHDGAPGSGCGPSGHVMASDGAAPRAGLAWSPCSRRQLLSLLSAGRARCVWDPPRPQPGSAGHPPDAQPGLYYSANEQCRVAFGPKAVACTFAREHLDMCQALSCHTDPLDQSSCSRLLVPLLDGTECGVEKWCSKGRCRSLVELTPIAAVHGRWSSWGPRSPCSRSCGGGVVTRRRQCNNPRPAFGGRACVGADLQAEMCNTQACEKTQLEFMSQQCARTDGQPLRSSPGGASFYHWGAAVPHSQGDALCRHMCRAIGESFIMKRGDSFLDGTRCMPSGPREDGTLSLCVSGSCRTFGCDGRMDSQQVWDRCQVCGGDNSTCSPRKGSFTAGRAAEYVTFLTVTPNLTSVYIANHRPAFTHLAVRIGGRYVVAGNMSISPNTTYPSLLEDGRVEYRVALTEDAAPRLEEIRIWGPLQEDADIQVYRRYGEEAGNATRPDITFTYFQPKPRQAWVWAAVRGPCSVSCGAGLRWVNYSCLDQARKELVETVQCQGSQQPPAWPEACVLEPCPPYWAVGDFGPCSASCGGGLRERPVRCVEAQGSLLKTLPPARCRAGAQQPAVALETCNPQPCPARWEVSEPSSCTSAGGAGLALENETCVPGADGLEAPVTEGPGSVDEKLPAPEPCVGMSCPPGWGHLDATSAGEKAPSPWGSIRTGAQAAHVWTPAAGSCSVSCGRGLMELRFLCMDSALRVPVQEELCGLASKPGSRREVCQAVPCPARWQYKLAACSVSCGRGVVRRILYCARAHGEDDGEEILLDTQCQGLPRPEPQEACSLEPCPPRWKVMSLGPCSASCGLGTARRSVACVQLDQGQDVEVDEAACAALVRPEASVPCLIADCTYRWHVGTWMECSVSCGDGIQRRRDTCLGPQAQAPVPADFCQHLPKPVTVRGCWAGPCVGQGTPSLVPHEEAAAPGRTTATPAGASLEWSQARGLLFSPAPQPRRLLPGPQENSVQSSACGRQHLEPTGTIDMRGPGQADCAVAIGRPLGEVVTLRVLESSLNCSAGDMLLLWGRLTWRKMCRKLLDMTFSSKTNTLVVRQRCGRPGGGVLLRYGSQLAPETFYRECDMQLFGPWGEIVSPSLSPATSNAGGCRLFINVAPHARIAIHALATNMGAGTEGANASYILIRDTHSLRTTAFHGQQVLYWESESSQAEMEFSEGFLKAQASLRGQYWTLQSWVPEMQDPQSWKGKEGT
With B1 the Activity level (% relative to wild type ADAMTS13) VWFFRETS73 (% relative to wild type ADAMTS13) [1] was 40.

B2: Full-length ADAMTS13 variant NGLY6 (636RLPRL640 to 636RNASL640) (protein)
chain: AAGGILHLELLVAVGPDVFQAHQEDTERYVLTNLNIGAELLRDPSLGAQFRVHLVKMVILTEPEGAPNITANLTSSLLSVCGWSQTINPEDDTDPGHADLVLYITRFDLELPDGNRQVRGVTQLGGACSPTWSCLITEDTGFDLGVTIAHEIGHSFGLEHDGAPGSGCGPSGHVMASDGAAPRAGLAWSPCSRRQLLSLLSAGRARCVWDPPRPQPGSAGHPPDAQPGLYYSANEQCRVAFGPKAVACTFAREHLDMCQALSCHTDPLDQSSCSRLLVPLLDGTECGVEKWCSKGRCRSLVELTPIAAVHGRWSSWGPRSPCSRSCGGGVVTRRRQCNNPRPAFGGRACVGADLQAEMCNTQACEKTQLEFMSQQCARTDGQPLRSSPGGASFYHWGAAVPHSQGDALCRHMCRAIGESFIMKRGDSFLDGTRCMPSGPREDGTLSLCVSGSCRTFGCDGRMDSQQVWDRCQVCGGDNSTCSPRKGSFTAGRAREYVTFLTVTPNLTSVYIANHRPLFTHLAVRIGGRYVVAGKMSISPNTTYPSLLEDGRVEYRVALTEDRNASLEEIRIWGPLQEDADIQVYRRYGEEYGNLTRPDITFTYFQPKPRQAWVWAAVRGPCSVSCGAGLRWVNYSCLDQARKELVETVQCQGSQQPPAWPEACVLEPCPPYWAVGDFGPCSASCGGGLRERPVRCVEAQGSLLKTLPPARCRAGAQQPAVALETCNPQPCPARWEVSEPSSCTSAGGAGLALENETCVPGADGLEAPVTEGPGSVDEKLPAPEPCVGMSCPPGWGHLDATSAGEKAPSPWGSIRTGAQAAHVWTPAAGSCSVSCGRGLMELRFLCMDSALRVPVQEELCGLASKPGSRREVCQAVPCPARWQYKLAACSVSCGRGVVRRILYCARAHGEDDGEEILLDTQCQGLPRPEPQEACSLEPCPPRWKVMSLGPCSASCGLGTARRSVACVQLDQGQDVEVDEAACAALVRPEASVPCLIADCTYRWHVGTWMECSVSCGDGIQRRRDTCLGPQAQAPVPADFCQHLPKPVTVRGCWAGPCVGQGTPSLVPHEEAAAPGRTTATPAGASLEWSQARGLLFSPAPQPRRLLPGPQENSVQSSACGRQHLEPTGTIDMRGPGQADCAVAIGRPLGEVVTLRVLESSLNCSAGDMLLLWGRLTWRKMCRKLLDMTFSSKTNTLVVRQRCGRPGGGVLLRYGSQLAPETFYRECDMQLFGPWGEIVSPSLSPATSNAGGCRLFINVAPHARIAIHALATNMGAGTEGANASYILIRDTHSLRTTAFHGQQVLYWESESSQAEMEFSEGFLKAQASLRGQYWTLQSWVPEMQDPQSWKGKEGTHHHHHH
In the case of B2, the “FRETS-VWF73 activity relative to wild-type ADAMTS13” value [1] is reported as “NGLY6 showed a reduced activity when compared to wild-type ADAMTS13”.

B3: Full-length ADAMTS13 variant NGLY3 (607GKMSI611 to 607GNMSI611; K608N) (protein)
chain: B2 chain with K534N, N563L, A564P, S565R
For B3, the Activity level (% relative to wild type ADAMTS13) VWFFRETS73 (% relative to wild type ADAMTS13) [1] was 125, the “FRETS-VWF73 activity relative to wild-type ADAMTS13” value [1] was “The ability of NGLY1, 2, 3 and 4 was similar or higher when compared to wild-type ADAMTS13” and the “Ability to process VWF multimers under denaturing conditions” value [2] was “++++++”. For the same protein, the “VWF multimer assay (urea-denatured recombinant VWF)” value (“VWF multimer assay” below) [2] was “The VWF processing activity of NGLY3 and NGLY4 was similar to that of the wild-type ADAMTS13” and the “vortex assay: processing of VWF multimers under shear stress” value [2] was “Under these conditions NGLY3 was fully active”.

B4: Full-length ADAMTS13 variant NGLY2 (590PLFTH594 to 590PNFTH594) (protein)
chain: B2 chain with L517N, N563L, A564P, S565R
B4 was tested, and the “FRETS-VWF73 activity relative to wild-type ADAMTS13” value [1] was “The ability of NGLY1, 2, 3 and 4 was similar or higher when compared to wild-type ADAMTS13” and the “VWF multimer assay” value [2] was “a reduced VWF processing activity was observed for NGLY2 and NGLY5”.

B5: Full-length wild-type ADAMTS13 (1427 amino acids) (protein)
chain: B2 chain with N563L, A564P, S565R
For B5, the Activity level (% relative to wild type ADAMTS13) VWFFRETS73 (% relative to wild type ADAMTS13) [1] was 100, the “Ability to process VWF multimers under denaturing conditions” value [2] was “++++++” and the “vortex assay: processing of VWF multimers under turbulent flow” value [2] was “resulted in loss of the high molecular weight multimers from the sample”.

B6: Full-length ADAMTS13 variant NGLY5 (635DRLPR639 to 635DNLSR639) (protein)
chain: B2 chain with R562N, N563L, A564S, S565R
B6 was tested, and the “FRETS-VWF73 activity relative to wild-type ADAMTS13” value [1] was “The activity of NGLY5 was slightly reduced when compared to wild type ADAMTS13” and the “VWF multimer assay” value [2] was “a reduced VWF processing activity was observed for NGLY2 and NGLY5”.

B7: Full-length ADAMTS13 variant NGLY1 (567AREYV571 to 567ANETV571) (protein)
chain: B2 chain with R494N, Y496T, N563L, A564P, S565R
B7 was tested, and the “FRETS-VWF73 activity relative to wild-type ADAMTS13” value [1] was “The ability of NGLY1, 2, 3 and 4 was similar or higher when compared to wild-type ADAMTS13”.

B8: Full-length ADAMTS13 variant NGLY4 (608KMSIS612 to 608KNSTS612) (protein)
chain: B2 chain with M535N, I537T, N563L, A564P, S565R
For B8, the “FRETS-VWF73 activity relative to wild-type ADAMTS13” value [1] was “The ability of NGLY1, 2, 3 and 4 was similar or higher when compared to wild-type ADAMTS13” and the “VWF multimer assay” value [2] was “The VWF processing activity of NGLY3 and NGLY4 was similar to that of the wild-type ADAMTS13”.
